Assay results taken from US20240132578A1.

Experiments:
Assay in all cases: cell-based or functional assay
[1] = molecular target: HIV-1 Env of isolate MGRM-D-021 (pseudovirus) (HIV-1)
[2] = molecular target: HIV-1 Env of isolate MGRM-D-004 (pseudovirus) (HIV-1)
[3] = molecular target: HIV-1 Env of isolate MGRM-D-024 (HIV-1)
[4] = molecular target: HIV-1 Env of isolate MGRM-F1-015 (HIV-1)
[5] = molecular target: HIV-1 Env of isolate MGRM-Chronic-B-008 (HIV-1)
[6] = molecular target: HIV-1 JR-CSF Env I414A (HIV-1 (isolate JR-CSF)) (UniProt P20871)
[7] = molecular target: HIV-1 Env of isolate 92RW008 (pseudovirus) (HIV-1)
[8] = molecular target: HIV-1 Env of pseudovirus isolate MGRM-C-014 (clade C) (HIV-1)
[9] = molecular target: HIV-1 Env of isolate MGRM-F1-018 (HIV-1)
[10] = molecular target: HIV-1 Env of isolate MGRM-F1-006 (HIV-1)
[11] = molecular target: HIV-1 Env of isolate MGRM-C-020 (subtype C), on pseudovirus (HIV-1)
[12] = molecular target: HIV-1 Env of isolate 94 KE 105 (pseudovirus) (HIV-1)
[13] = molecular target: HIV-1 Env of isolate MGRM-AE-003 (pseudovirus) (HIV-1)
[14] = molecular target: HIV-1 Env of isolate MGRM-G-017 (subtype G) (HIV-1)
[15] = molecular target: HIV-1 Env of isolate MGRM-G-016 (subtype G) (HIV-1)
[16] = molecular target: HIV-1 Env of pseudovirus isolate APV-13 (clade B) (HIV-1)
[17] = molecular target: HIV-1 APV-6 envelope (Env) on pseudovirus (HIV-1)
[18] = molecular target: HIV-1 MGRM-AE-002 Env (pseudovirus) (HIV-1)
[19] = molecular target: HIV-1 Env of isolate 94UG103 (clade A pseudovirus) (HIV-1)
[20] = molecular target: HIV-1 Env of isolate MGRM-AE-007 (pseudovirus) (HIV-1)
[21] = molecular target: HIV-1 Env of isolate MGRM-Chronic-B-008, clade B (HIV-1)
[22] = molecular target: HIV-1 Env of isolate MGRM-A-012 (clade A pseudovirus) (HIV-1)
[23] = molecular target: HIV-1 Env of pseudovirus MGRM-G-019 (HIV-1)
[24] = molecular target: HIV-1 envelope glycoprotein (Env) of isolate MGRM-C-017 (HIV-1)
[25] = molecular target: HIV-1 envelope glycoprotein (Env) of isolate MGRM-C-024 (HIV-1)
[26] = molecular target: HIV-1 92UG024 envelope protein (Env) on pseudovirus (HIV-1)
[27] = molecular target: HIV-1 92TH021 Env (pseudovirus) (HIV-1)
[28] = molecular target: HIV-1 Env of pseudovirus MGRM-F1-016 (clade F) (HIV-1)
[29] = molecular target: HIV-1 Env of isolate 6535.3 (Acute), clade B (HIV-1)
[30] = molecular target: HIV-1 Env of isolate MGRM-AG-011 (pseudovirus) (HIV-1)
[31] = molecular target: HIV-1 Env of isolate MGRM-AG-006 (pseudovirus) (HIV-1)
[32] = molecular target: HIV-1 envelope glycoprotein (Env) of isolate 92WR024, subtype A (HIV-1)
[33] = molecular target: HIV-1 envelope glycoprotein (Env) of isolate MG RM-A-003, subtype A (HIV-1)
[34] = molecular target: HIV-1 envelope glycoprotein (Env) of isolate APV_17, on pseudovirus (HIV-1)
[35] = molecular target: HIV-1 envelope glycoprotein (Env) of isolate MG RM-A-004, subtype A (HIV-1)
[36] = molecular target: HIV-1 envelope glycoprotein (Env) of isolate MGRM-Chronic-B-018, on pseudovirus (HIV-1)
[37] = molecular target: HIV-1 envelope glycoprotein (Env) of isolate 92UG037, subtype A (HIV-1)

Sequence of 4980_N08 (PGT-143) (antibody) (VH): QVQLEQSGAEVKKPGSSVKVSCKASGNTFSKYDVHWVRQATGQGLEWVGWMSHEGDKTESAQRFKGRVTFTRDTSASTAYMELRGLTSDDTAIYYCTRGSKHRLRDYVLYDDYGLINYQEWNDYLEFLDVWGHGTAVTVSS
Sequence of 4980_N08 (PGT-143) (antibody) (VL): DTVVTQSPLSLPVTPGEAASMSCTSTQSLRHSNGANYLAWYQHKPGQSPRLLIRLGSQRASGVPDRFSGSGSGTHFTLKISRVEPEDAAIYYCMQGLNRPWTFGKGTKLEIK
Sequence of 4993_K13 (PGT-141) (antibody) (VH): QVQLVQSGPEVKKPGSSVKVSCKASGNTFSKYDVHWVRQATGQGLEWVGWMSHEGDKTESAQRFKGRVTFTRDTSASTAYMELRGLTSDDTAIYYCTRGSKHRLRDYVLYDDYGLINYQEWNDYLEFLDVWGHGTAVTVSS
Sequence of 4993_K13 (PGT-141) (antibody) (VL): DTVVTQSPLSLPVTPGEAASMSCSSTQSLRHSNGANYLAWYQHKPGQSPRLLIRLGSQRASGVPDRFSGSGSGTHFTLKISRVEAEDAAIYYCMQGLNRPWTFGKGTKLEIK

Q: With 5114_A19 (PGT-128) (antibody) as the substance, how does the IC50 (µg/mL), pseudovirus neutralization [1] read?
A: 0.014 µg/mL

Q: And the IC50 (µg/mL), pseudovirus neutralization [2]?
A: 24.9 µg/mL

Q: And the IC50 (µg/mL), pseudovirus neutralization [3]?
A: 0.067 µg/mL

Q: What about the IC50 (µg/mL), pseudovirus neutralization [4] of the same substance?
A: > 50 µg/mL

Q: What about the IC50 (µg/mL), pseudovirus neutralization [5] of the same substance?
A: 0.143 µg/mL

Q: What about the Fold IC50 increase relative to wild-type (pseudovirus neutralization) [6] of the same substance?
A: 1.4 fold

Q: And the IC50 (µg/mL), pseudovirus neutralization [7]?
A: 0.003 µg/mL

Q: What about the IC50, pseudovirus neutralization [8] of the same substance?
A: > 50 µg/mL

Q: And the IC50 (µg/mL), pseudovirus neutralization [9]?
A: 0.023 µg/mL

Q: And the IC50 (µg/mL), pseudovirus neutralization [10]?
A: 0.763 µg/mL

Q: With 4980_N08 (PGT-143) (antibody) as the substance, how does the IC50, single-round pseudovirus neutralization [11] read?
A: 0.797 µg/mL

Q: What about the IC50 (µg/mL), single-round pseudovirus neutralization [12] of the same substance?
A: 0.368 µg/mL

Q: And the IC50 (µg/mL), single-round pseudovirus neutralization [13]?
A: > 50 µg/mL

Q: What about the IC50 (µg/mL), pseudovirus neutralization [14] of the same substance?
A: 0.107 µg/mL

Q: And the IC50 (µg/mL), pseudovirus neutralization [15]?
A: 7.6 µg/mL

Q: And the IC50, pseudovirus neutralization [16]?
A: > 50 µg/mL

Q: With 1496_C09 (PG9) (TCN-109) (antibody) as the substance, how does the neutralization IC50 [17] read?
A: 0.0869 µg/mL

Q: And the IC50 (µg/ml), pseudovirus neutralization [18]?
A: 0.04 µg/mL

Q: What about the IC50 (µg/ml), pseudovirus neutralization [19] of the same substance?
A: 0.24 µg/mL

Q: What about the IC50 (µg/mL), pseudovirus neutralization [20] of the same substance?
A: 0.18 µg/mL

Q: What about the IC50 (µg/ml), pseudovirus neutralization [21] of the same substance?
A: 6.66 µg/mL

Q: And the IC50 (µg/ml), pseudovirus neutralization [22]?
A: 11.2 µg/mL

Q: And the IC50 (µg/ml), pseudovirus neutralization [23]?
A: 0.67 µg/mL

Q: And the IC50 (µg/ml), pseudovirus neutralization [24]?
A: 1.52 µg/mL

Q: And the IC50 (µg/mL), pseudovirus neutralization [13]?
A: 0.044 µg/mL

Q: And the IC50 (µg/ml), pseudovirus neutralization [25]?
A: 0.22 µg/mL

Q: And the IC50 (µg/mL), pseudovirus neutralization [14]?
A: 0.104 µg/mL

Q: What about the IC50 (ug/mL), pseudovirus neutralization [26] of the same substance?
A: 1.91 µg/mL

Q: What about the IC50 (µg/ml), pseudovirus neutralization [27] of the same substance?
A: 0.09 µg/mL

Q: And the IC50 [28]?
A: 0.58 µg/mL

Q: What about the IC50 (µg/ml), pseudovirus neutralization [29] of the same substance?
A: 0.22 µg/mL

Q: What about the IC50 (µg/mL), pseudovirus neutralization [9] of the same substance?
A: 0.019 µg/mL

Q: What about the IC50 (µg/mL), pseudovirus neutralization [30] of the same substance?
A: 0.007 µg/mL

Q: And the IC50 (µg/mL), pseudovirus neutralization [15]?
A: 1.36 µg/mL

Q: With 4993_K13 (PGT-141) (antibody) as the substance, how does the IC50, single-round pseudovirus neutralization [11] read?
A: 1.34 µg/mL

Q: What about the IC50 (µg/mL), single-round pseudovirus neutralization [12] of the same substance?
A: 0.204 µg/mL

Q: And the IC50 (µg/mL), single-round pseudovirus neutralization [13]?
A: > 50 µg/mL

Q: And the IC50 (µg/mL), pseudovirus neutralization [14]?
A: 0.164 µg/mL

Q: What about the IC50 (µg/mL), pseudovirus neutralization [15] of the same substance?
A: 4.69 µg/mL

Q: What about the IC50, pseudovirus neutralization [16] of the same substance?
A: > 50 µg/mL

Q: How did the IC50 (µg/mL), pseudovirus neutralization [20] turn out when PGV04 (antibody) was run?
A: 5.75 µg/mL

Q: And the IC50 (µg/mL), pseudovirus neutralization [13]?
A: 6.4 µg/mL

Q: What about the IC50 (µg/mL), pseudovirus neutralization [14] of the same substance?
A: 0.065 µg/mL

Q: What about the IC50 (µg/mL), pseudovirus neutralization [31] of the same substance?
A: 1.23 µg/mL

Q: And the IC50 (µg/mL), pseudovirus neutralization [9]?
A: 0.027 µg/mL

Q: What about the IC50 (µg/mL), pseudovirus neutralization [30] of the same substance?
A: 0.071 µg/mL

Q: And the IC50 (µg/mL), pseudovirus neutralization [15]?
A: 0.019 µg/mL

Q: What does the source list for 5136_H01 (PGT-131) (antibody)?
A: IC50 (µg/mL), pseudovirus neutralization [1]: 0.106 µg/mL; IC50 (µg/mL), pseudovirus neutralization [2]: 2.01 µg/mL; IC50 (µg/mL), pseudovirus neutralization [3]: > 50 µg/mL; IC50 (µg/mL), pseudovirus neutralization [4]: > 50 µg/mL; IC50 (µg/mL), pseudovirus neutralization [5]: > 50 µg/mL; Fold IC50 increase relative to wild-type (pseudovirus neutralization) [6]: 1 fold; IC50 (µg/mL), pseudovirus neutralization [7]: 1.01 µg/mL; IC50, pseudovirus neutralization [8]: > 50 µg/mL; IC50 (µg/mL), pseudovirus neutralization [9]: > 50 µg/mL; IC50 (µg/mL), pseudovirus neutralization [10]: > 50 µg/mL

Q: 5145_B14 (PGT-127) (antibody) was tested. Which IC50, pseudovirus neutralization [32] did it give?
A: > 50 µg/mL

Q: And the IC50 (µg/mL), pseudovirus neutralization [20]?
A: > 50 µg/mL

Q: And the IC50, pseudovirus neutralization [33]?
A: > 50 µg/mL

Q: And the Fold IC50 increase relative to wild-type (pseudovirus neutralization) [6]?
A: 2.2 fold

Q: And the IC50, pseudovirus neutralization [34]?
A: 10.4 µg/mL

Q: What about the IC50, pseudovirus neutralization [35] of the same substance?
A: > 50 µg/mL

Q: What about the IC50 (µg/mL), pseudovirus neutralization [31] of the same substance?
A: 0.021 µg/mL

Q: What about the IC50 (µg/mL), pseudovirus neutralization [30] of the same substance?
A: > 50 µg/mL

Q: And the IC50, pseudovirus neutralization [36]?
A: 1.9 µg/mL

Q: What about the IC50, pseudovirus neutralization [37] of the same substance?
A: 0.014 µg/mL

Q: Which IC50, pseudovirus neutralization [32] does the source give for 4838_L06 (PGT-121) (antibody) here?
A: > 50 µg/mL

Q: What about the IC50, pseudovirus neutralization [33] of the same substance?
A: 0.435 µg/mL

Q: And the IC50 (ug/mL), pseudovirus neutralization [26]?
A: > 10 µg/mL

Q: And the IC50, pseudovirus neutralization [34]?
A: 0.066 µg/mL

Q: And the IC50, pseudovirus neutralization [35]?
A: > 50 µg/mL

Q: What about the IC50, pseudovirus neutralization [36] of the same substance?
A: > 50 µg/mL

Q: And the IC50, pseudovirus neutralization [37]?
A: 0.031 µg/mL

Q: How did the IC50, pseudovirus neutralization [32] turn out when 4858_P08 (PGT-123) (antibody) was run?
A: > 50 µg/mL

Q: What about the IC50 (µg/mL), pseudovirus neutralization [20] of the same substance?
A: > 50 µg/mL

Q: What about the IC50, pseudovirus neutralization [33] of the same substance?
A: 0.495 µg/mL

Q: What about the IC50 (ug/mL), pseudovirus neutralization [26] of the same substance?
A: > 10 µg/mL

Q: What about the Fold IC50 increase relative to wild-type (pseudovirus neutralization) [6] of the same substance?
A: 0.3 fold

Q: And the IC50, pseudovirus neutralization [34]?
A: 0.114 µg/mL

Q: And the IC50, pseudovirus neutralization [35]?
A: > 50 µg/mL

Q: And the IC50 (µg/mL), pseudovirus neutralization [31]?
A: 0.014 µg/mL

Q: And the IC50 (µg/mL), pseudovirus neutralization [30]?
A: > 50 µg/mL

Q: What about the IC50, pseudovirus neutralization [36] of the same substance?
A: > 50 µg/mL

Q: What about the IC50, pseudovirus neutralization [37] of the same substance?
A: 0.023 µg/mL
